From PMC12592476 (2025)

How the values were obtained:
[1] = molecular target: T1, bovine brain Arp2/3 complex (bovine, UniProt P61157 1-418; A7MB62 1-394; Q58CQ2 1-372; Q3MHR7 1-300; Q3T035 1-178; Q148J6 …); assay: ITC; ATP-bound Arp2/3 complex
[2] = molecular target: T1, bovine brain Arp2/3 complex; assay: ITC; ADP-bound Arp2/3 complex
[3] = molecular target: T2, F-actin (rabbit skeletal α-actin, polymerized) (rabbit, UniProt P68135 1-377); assay: ADP-F-actin (- BeF3-)
[4] = molecular target: T2, F-actin (rabbit skeletal α-actin, …); assay: ADP-BeF3- F-actin
[5] = molecular target: T2, F-actin (rabbit skeletal α-actin, …); assay: ADP-F-actin

B1: human Coro7 CA (C-terminal Central-Acidic region of coronin 7) (domain or fragment)
chain: SDQQKKEELLNAMVAKLGNREDPLPQDSFEGVDEDEWD
Kd [1]: 1.9 µM
Kd [2]: 0.9 µM

B2: human Coro7 full length (Coro7 FL) (natural protein)
chain: MNRFRVSKFRHTEARPPRRESWISDIRAGTAPSCRNHIKSSCSLIAFNSDRPGVLGIVPLQGQGEDKRRVAHLGCHSDLVTDLDFSPFDDFLLATGSADRTVKLWRLPGPGQALPSAPGVVLGPEDLPVEVLQFHPTSDGILVSAAGTTVKVWDAAKQQPLTELAAHGDLVQSAVWSRDGALVGTACKDKQLRIFDPRTKPRASQSTQAHENSRDSRLAWMGTWEHLVSTGFNQMREREVKLWDTRFFSSALASLTLDTSLGCLVPLLDPDSGLLVLAGKGERQLYCYEVVPQQPALSPVTQCVLESVLRGAALVPRQALAVMSCEVLRVLQLSDTAIVPIGYHVPRKAVEFHEDLFPDTAGCVPATDPHSWWAGDNQQVQKVSLNPACRPHPSFTSCLVPPAEPLPDTAQPAVMETPVGDADASEGFSSPPSSLTSPSTPSSLGPSLSSTSGIGTSPSLRSLQSLLGPSSKFRHAQGTVLHRDSHITNLKGLNLTTPGESDGFCANKLRVAVPLLSSGGQVAVLELRKPGRLPDTALPTLQNGAAVTDLAWDPFDPHRLAVAGEDARIRLWRVPAEGLEEVLTTPETVLTGHTEKICSLRFHPLAANVLASSSYDLTVRIWDLQAGADRLKLQGHQDQIFSLAWSPDGQQLATVCKDGRVRVYRPRSGPEPLQEGPGPKGGRGARIVWVCDGRCLLVSGFDSQSERQLLLYEAEALAGGPLAVLGLDVAPSTLLPSYDPDTGLVLLTGKGDTRVFLYELLPESPFFLECNSFTSPDPHKGLVLLPKTECDVREVELMRCLRLRQSSLEPVAFRLPRVRKEFFQDDVFPDTAVIWEPVLSAEAWLQGANGQPWLLSLQPPDMSPVSQAPREAPARRAPSSAQYLEEKSDQQKKEELLNAMVAKLGNREDPLPQDSFEGVDEDEWD
Kd [3]: 9.9 µM
Kd [4]: 37.4 µM
Kd [5]: 9.9 µM

B3: human Coro7 β2 (domain or fragment)
chain: KFRHAQGTVLHRDSHITNLKGLNLTTPGESDGFCANKLRVAVPLLSSGGQVAVLELRKPGRLPDTALPTLQNGAAVTDLAWDPFDPHRLAVAGEDARIRLWRVPAEGLEEVLTTPETVLTGHTEKICSLRFHPLAANVLASSSYDLTVRIWDLQAGADRLKLQGHQDQIFSLAWSPDGQQLATVCKDGRVRVYRPRSGPEPLQEGPGPKGGRGARIVWVCDGRCLLVSGFDSQSERQLLLYEAEALAGGPLAVLGLDVAPSTLLPSYDPDTGLVLLTGKGDTRVFLYELLPESPFFLECNSFTSPDPHKGLVLLPKTECDVREVELMRCLRLRQSSLEPVAFRLPRVRKEFFQDDVFPDTAVIWEPVLSAEAWLQGANGQPWLLSLQPPDMS
Kd [5]: 11 µM

B4: human Coro7 β1β2 (domain or fragment)
chain: MNRFRVSKFRHTEARPPRRESWISDIRAGTAPSCRNHIKSSCSLIAFNSDRPGVLGIVPLQGQGEDKRRVAHLGCHSDLVTDLDFSPFDDFLLATGSADRTVKLWRLPGPGQALPSAPGVVLGPEDLPVEVLQFHPTSDGILVSAAGTTVKVWDAAKQQPLTELAAHGDLVQSAVWSRDGALVGTACKDKQLRIFDPRTKPRASQSTQAHENSRDSRLAWMGTWEHLVSTGFNQMREREVKLWDTRFFSSALASLTLDTSLGCLVPLLDPDSGLLVLAGKGERQLYCYEVVPQQPALSPVTQCVLESVLRGAALVPRQALAVMSCEVLRVLQLSDTAIVPIGYHVPRKAVEFHEDLFPDTAGCVPATDPHSWWAGDNQQVQKVSLNPACRPHPSFTSCLVPPAEPLPDTAQPAVMETPVGDADASEGFSSPPSSLTSPSTPSSLGPSLSSTSGIGTSPSLRSLQSLLGPSSKFRHAQGTVLHRDSHITNLKGLNLTTPGESDGFCANKLRVAVPLLSSGGQVAVLELRKPGRLPDTALPTLQNGAAVTDLAWDPFDPHRLAVAGEDARIRLWRVPAEGLEEVLTTPETVLTGHTEKICSLRFHPLAANVLASSSYDLTVRIWDLQAGADRLKLQGHQDQIFSLAWSPDGQQLATVCKDGRVRVYRPRSGPEPLQEGPGPKGGRGARIVWVCDGRCLLVSGFDSQSERQLLLYEAEALAGGPLAVLGLDVAPSTLLPSYDPDTGLVLLTGKGDTRVFLYELLPESPFFLECNSFTSPDPHKGLVLLPKTECDVREVELMRCLRLRQSSLEPVAFRLPRVRKEFFQDDVFPDTAVIWEPVLSAEAWLQGANGQPWLLSLQPPDMS
Kd [5]: 5.2 µM

B5: human Coro7 β1 (domain or fragment)
chain: MNRFRVSKFRHTEARPPRRESWISDIRAGTAPSCRNHIKSSCSLIAFNSDRPGVLGIVPLQGQGEDKRRVAHLGCHSDLVTDLDFSPFDDFLLATGSADRTVKLWRLPGPGQALPSAPGVVLGPEDLPVEVLQFHPTSDGILVSAAGTTVKVWDAAKQQPLTELAAHGDLVQSAVWSRDGALVGTACKDKQLRIFDPRTKPRASQSTQAHENSRDSRLAWMGTWEHLVSTGFNQMREREVKLWDTRFFSSALASLTLDTSLGCLVPLLDPDSGLLVLAGKGERQLYCYEVVPQQPALSPVTQCVLESVLRGAALVPRQALAVMSCEVLRVLQLSDTAIVPIGYHVPRKAVEFHEDLFPDTAGCVPATDPHSWWAGDNQQVQKVSLNPACRPHPSFTSCLV
Kd [5]: 5.5 µM
